B1: SEC22B (parent)
chain: FPKKLAFAYLEDLHSEFDEQHGKK

Variants of: B1
Assay: protein stability index of a GFP-peptide fusion (GPS, HEK-293T) (PSI 1-6); higher = more stable
Details: c terminus: a fixed tail appended
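Note: lentivirally expressed fusions sorted by FACS into six bins by GFP to DsRed ratio, PSI derived from sequencing read proportions per bin multiplied by bin number.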

Protein stability index: each site, then its substitutions
A6: L 1.83, K 2.59, F 2.4, Y 1.66, D 3.13, R 2.28, Q 3.18, W 2.74, V 2.45, N 2.56, I 2.35, G 2.45, C 2.29, H 2.91, E 3.96, S 2.69, M 2.3, P 3.06, T 3.03
D12: H 2.25, V 1.85, A 2.1, Q 2.22, C 1.95, W 2.49, K 2.38, G 2.77, L 1.77, T 2.39, E 3.72, F 1.97, S 2.16, P 2.33, Y 1.89, R 1.93, M 2.39, N 2.97, I 1.72
F17: M 2.45, K 2.98, Q 3.28, S 2.64, R 2.85, D 3.03, V 2.67, G 2.4, H 2.66, C 2.87, T 2.99, I 2.6, A 2.68, Y 2.91, P 2.75, W 2.57, L 2.54, N 2.76, E 3.04
L5: E 3.56, R 2.65, M 1.84, G 2.41, P 1.77, T 3.02, N 2.65, W 1.59, Q 3.18, K 2.85, F 2.17, S 2.64, C 1.66, Y 2.52, H 1.95, A 2.15, I 2.98, D 3.26, V 2.9
L10: P 2.92, R 2.75, I 2.34, T 3.16, K 3.46, D 3.56, M 2.43, V 2.11, Q 3.39, S 3.15, G 2.78, C 2.21, H 2.75, Y 2.84, N 3.33, F 2.31, A 2.47, E 3.35, W 2.27
H14: A 2.47, W 2.06, S 2.75, P 2.2, Q 2.85, D 2.53, F 1.91, I 1.68, V 1.98, Y 2.28, C 2.07, E 2.13, K 2.96, M 2.23, R 2.55, L 2.31, G 2.57, T 2.89, N 2.46
S15: D 2.89, Y 2.08, G 2.25, P 2.42, V 2.88, H 2.22, W 2.27, F 2.15, T 2.41, N 2.67, C 2.25, A 2.15, K 2.54, R 2.41, L 2.85, Q 2.73, I 2.25, E 2.9, M 2.5
E19: H 2.05, S 2.33, A 2.47, K 2.37, D 2.92, Q 2.33, Y 2.39, M 2.53, T 2.42, P 2.79, R 1.63, N 2.86, I 2.37, G 2.36, V 2.32, L 2.6, W 2.12, C 2.15, F 2.51
A8: L 1.88, M 2.68, H 2.72, Y 1.79, N 2.83, G 3.04, E 3.27, Q 3.08, K 2.91, C 2.09, I 2.4, F 2.26, V 2.31, D 3.39, R 2.34, P 2.84, S 3.06, T 2.64
Q20: Y 2.47, F 2.49, N 2.55, T 2.44, M 2.03, P 2.4, H 2.47, S 2.58, K 2.64, I 2.03, W 2.46, D 2.93, E 2.52, V 2.84, G 2.32, L 2.54, C 2.09, A 2.23, R 2.67
F7: C 3.47, G 3.8, P 3.39, D 3.98, S 3.8, I 3.24, T 3.33, H 3.42, Q 4.16, E 4, R 3.28, A 3.63, L 2.65, V 2.67, W 1.95, N 3.79, K 3.8, Y 2.5, M 2.53
E16: T 2.36, L 2.29, R 2.39, W 1.94, A 2.4, M 1.93, K 2.87, I 2.07, F 1.53, P 2.25, C 2, Q 2.55, Y 1.56, G 2.5, V 1.87, N 2.15, S 2.8, D 2.34, H 2.08
G22: C 2.35, A 2.54
H21: G 2.5, E 2.85, W 2.34, S 2.6, Y 2.37, M 2.69, A 2.93, D 3.02, P 2.41, V 2.28, C 2.28, Q 2.66, K 2.55, L 2.25, N 3.07, T 2.69, I 1.98, R 2.37, F 2.46
K4: W 1.05, V 2.25, T 2.47, M 2.02, P 2.45, Q 2.52, R 1.61, Y 1.95, N 2.27, S 1.55
L13: N 3.13, P 2.61, F 2.5, Y 2.47, S 2.56, M 2.3, V 2.55, G 3.51, Q 3.21, K 3.2, T 2.79, W 2.99, E 3.23, C 2.83, H 2.93, R 2.79, I 2.62, A 3.2, D 2.54
Y9: N 3.67, M 2.48, S 2.73, D 3.15, I 1.8, W 1.67, K 3.08, C 2.18, G 3.27, F 1.99, R 3.09, E 3.04, V 2.2, Q 2.91, T 2.5, A 2.85, L 2.63, H 3.1, P 2.9
E11: A 2.29, S 1.78, Q 1.94, L 2.35, K 2.63, M 2.17, N 2.61, W 2.02, D 2.37, P 1.8, Y 1.98, F 1.97, T 2.64, I 1.87, G 2.08, V 1.77, H 1.86, C 1.88, R 2.24
D18: I 1.92, C 1.9, V 2.45, R 2.03, G 2.38, E 2.65, Q 2.25, F 2.04, T 2.56, N 2.3, L 2.22, K 1.76, W 2.17, M 2.22, A 2.38, S 2.92, P 2.47, H 2.38, Y 1.5

— the supplement of paper PMC10567573
